Here are results for one substance from article PMC4282830.

The assay deals with guanidine hydrochloride denatured vitamin D binding protein (human) (UniProt P02774). The assay is described as follows: covalent complex formation, reducing SDS-PAGE and immunoblot. Background: A western blot detects proteins with antibodies after separation by electrophoresis.
Sequence of UniProt P02774 (P02774 17-474): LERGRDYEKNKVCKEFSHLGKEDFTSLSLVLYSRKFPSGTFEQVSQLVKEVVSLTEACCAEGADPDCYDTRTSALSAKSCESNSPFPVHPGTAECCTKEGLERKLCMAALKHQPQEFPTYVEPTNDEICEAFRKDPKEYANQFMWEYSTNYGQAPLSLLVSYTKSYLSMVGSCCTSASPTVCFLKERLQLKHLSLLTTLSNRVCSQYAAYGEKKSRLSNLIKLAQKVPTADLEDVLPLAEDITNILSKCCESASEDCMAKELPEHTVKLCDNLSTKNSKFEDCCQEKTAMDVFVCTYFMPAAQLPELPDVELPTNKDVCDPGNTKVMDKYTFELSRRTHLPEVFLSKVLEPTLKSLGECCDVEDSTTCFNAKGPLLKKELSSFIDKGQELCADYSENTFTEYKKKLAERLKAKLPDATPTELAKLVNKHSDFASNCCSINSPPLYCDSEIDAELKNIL

complement C3b (natural protein) had a fold increase in intensity of the C3b:DBP band, denatured versus native DBP of 5 fold.
